Assay results from PMC6527163, “Proteomic discovery of substrates of the cardiovascular protease ADAMTS7” (The Journal of Biological Chemistry, 2019).

T1: ADAMTS7-T8 (human, UniProt Q9UKP4 237-1630)
T1 construct: signal peptide in the construct; human ADAMTS7 cDNA including the native signal peptide, truncated after Pro-1630 (T8); The construct is made as a zymogen; The stated enzyme concentrations are active protease, found by active-site titration with TIMP-4; also called purified ADAMTS7-T8; source: HEK cells stably expressing ADAMTS7-T8, conditioned medium, purified (anion exchange chromatography, gel …)
T1 sequence (looked up): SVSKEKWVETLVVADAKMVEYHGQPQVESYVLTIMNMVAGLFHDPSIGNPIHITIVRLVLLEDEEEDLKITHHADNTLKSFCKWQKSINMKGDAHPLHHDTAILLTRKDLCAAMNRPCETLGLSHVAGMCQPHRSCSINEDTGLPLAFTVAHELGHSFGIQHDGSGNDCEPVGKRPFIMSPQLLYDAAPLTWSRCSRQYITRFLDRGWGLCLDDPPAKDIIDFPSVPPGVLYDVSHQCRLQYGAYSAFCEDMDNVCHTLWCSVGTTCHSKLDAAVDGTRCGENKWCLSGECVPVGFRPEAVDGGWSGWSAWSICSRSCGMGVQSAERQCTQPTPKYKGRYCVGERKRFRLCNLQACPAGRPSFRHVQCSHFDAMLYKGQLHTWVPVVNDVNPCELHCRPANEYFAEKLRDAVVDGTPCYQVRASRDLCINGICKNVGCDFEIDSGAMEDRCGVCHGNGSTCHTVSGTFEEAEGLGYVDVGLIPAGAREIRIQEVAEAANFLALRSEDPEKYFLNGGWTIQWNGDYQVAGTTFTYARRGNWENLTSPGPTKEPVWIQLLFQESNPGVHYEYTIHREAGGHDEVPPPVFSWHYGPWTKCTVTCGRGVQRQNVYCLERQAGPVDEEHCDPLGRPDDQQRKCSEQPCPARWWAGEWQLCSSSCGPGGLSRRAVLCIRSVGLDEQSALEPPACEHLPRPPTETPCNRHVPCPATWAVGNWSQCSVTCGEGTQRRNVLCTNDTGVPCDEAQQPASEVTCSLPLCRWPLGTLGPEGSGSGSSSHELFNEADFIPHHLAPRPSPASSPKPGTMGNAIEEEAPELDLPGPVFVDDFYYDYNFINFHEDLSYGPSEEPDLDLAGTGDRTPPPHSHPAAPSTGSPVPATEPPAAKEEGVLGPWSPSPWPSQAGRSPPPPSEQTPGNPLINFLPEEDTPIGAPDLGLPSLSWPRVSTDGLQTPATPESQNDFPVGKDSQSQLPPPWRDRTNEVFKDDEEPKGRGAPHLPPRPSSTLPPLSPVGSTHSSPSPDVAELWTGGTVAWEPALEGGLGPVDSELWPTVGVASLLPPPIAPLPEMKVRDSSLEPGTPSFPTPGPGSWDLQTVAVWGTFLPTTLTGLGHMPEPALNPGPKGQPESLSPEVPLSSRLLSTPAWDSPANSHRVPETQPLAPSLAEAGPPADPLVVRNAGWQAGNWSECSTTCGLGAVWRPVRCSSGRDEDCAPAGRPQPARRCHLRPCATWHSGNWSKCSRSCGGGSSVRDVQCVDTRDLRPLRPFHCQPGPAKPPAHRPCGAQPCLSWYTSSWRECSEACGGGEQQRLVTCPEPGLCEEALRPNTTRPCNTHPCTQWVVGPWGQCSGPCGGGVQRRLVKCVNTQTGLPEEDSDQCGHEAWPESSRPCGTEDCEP

B1: TIMP-4 (natural protein, human, UniProt Q99727 30-224, looked up)
chain: CSCAPAHPQQHICHSALVIRAKISSEKVVPASADPADTEKMLRYEIKQIKMFKGFEKVKDVQYIYTPFDSSLCGVKLEANSQKQYLLTGQVLSDGKVFIHLCNYIEPWEDLSLVQRESLNHHYHLNCGCQITTCYTVPCTISAPNECLWTDWLLERKLYGYQAQHYVCMKHVDGTCSWYRGHLPLRKEFVDIVQP
notes: recombinant human TIMP-4 (R&D Systems); No catalogue number or tags are stated; source: bought: R&D Systems (recombinant human)
B2: TIMP-3 (natural protein, human, UniProt P35625 24-211, looked up)
chain: CTCSPSHPQDAFCNSDIVIRAKVVGKKLVKEGPFGTLVYTIKQMKMYRGFTKMPHVQYIHTEASESLCGLKLEVNKYQYLLTGRVYDGKMYTGLCNFVERWDQLTLSQRKGLNYRYHLGCNCKIKSCYYLPCFVTSKNECLWTDMLSNFGYPGYQSKHYACIRQKGGYCSWYRGWAPPDKSIINATDP
notes: recombinant human TIMP-3 (R&D Systems); No catalogue number or tags are stated; source: bought: R&D Systems (recombinant human)

Target: T1, ADAMTS7-T8
Assay: enzyme inhibition assay (densitometry of LTBP4S-A cleavage on SDS-PAGE/Coomassie Blue); apparent Ki; TIMP (1.75-60 nM) pre-incubated with ADAMTS7-T8 for 1 h at 37 °C, then 18 nM ADAMTS7 and 10 μM LTBP4S-A for 17 h at 37 °C; 20 mM Tris, pH 7.5, 150 mM NaCl, 10 mM CaCl2
Settings: both partners purified

Row | Binder | Ki [nM]
1 | B1 | 13
2 | B2 | 49
